From patent publication US20260176319A1 (KALLYOPE, published 2026) come the findings set out here.

The chains are these.
B1: Peptide 252 (peptide)
peptide: {C20 diacid}-[γGlu][γGlu][AEEA][AEEA]EGRH[Trp(7-Me)]AV[βAla]HL[Nle]-NH2
SMILES: CCCC[C@H](NC(=O)[C@H](CC(C)C)NC(=O)[C@H](Cc1c[nH]cn1)NC(=O)CCNC(=O)[C@@H](NC(=O)[C@H](C)NC(=O)[C@H](Cc1c[nH]c2c(C)cccc12)NC(=O)[C@H](Cc1c[nH]cn1)NC(=O)[C@H](CCCNC(=N)N)NC(=O)CNC(=O)[C@H](CCC(=O)O)NC(=O)COCCOCCNC(=O)COCCOCCNC(=O)CC[C@H](NC(=O)CC[C@H](NC(=O)CCCCCCCCCCCCCCCCCCC(=O)O)C(=O)O)C(=O)O)C(C)C)C(N)=O
B2: Peptide 251 (peptide)
peptide: {C20 diacid}-[γGlu][γGlu][AEEA][AEEA]GQHWAV[βAla]HL[Nle]-NH2
SMILES: CCCC[C@H](NC(=O)[C@H](CC(C)C)NC(=O)[C@H](Cc1c[nH]cn1)NC(=O)CCNC(=O)[C@@H](NC(=O)[C@H](C)NC(=O)[C@H](Cc1c[nH]c2ccccc12)NC(=O)[C@H](Cc1c[nH]cn1)NC(=O)[C@H](CCC(N)=O)NC(=O)CNC(=O)COCCOCCNC(=O)COCCOCCNC(=O)CC[C@H](NC(=O)CC[C@H](NC(=O)CCCCCCCCCCCCCCCCCCC(=O)O)C(=O)O)C(=O)O)C(C)C)C(N)=O
B3: Peptide 243 (peptide)
peptide: {C18 diacid}-[γGlu][γGlu][AEEA][AEEA]GRHWAV[βAla]HL[Nle]-NH2
SMILES: CCCC[C@H](NC(=O)[C@H](CC(C)C)NC(=O)[C@H](Cc1c[nH]cn1)NC(=O)CCNC(=O)[C@@H](NC(=O)[C@H](C)NC(=O)[C@H](Cc1c[nH]c2ccccc12)NC(=O)[C@H](Cc1c[nH]cn1)NC(=O)[C@H](CCCNC(=N)N)NC(=O)CNC(=O)COCCOCCNC(=O)COCCOCCNC(=O)CC[C@H](NC(=O)CC[C@H](NC(=O)CCCCCCCCCCCCCCCCC(=O)O)C(=O)O)C(=O)O)C(C)C)C(N)=O
B4: Peptide 254 (peptide)
peptide: {C20 diacid}-[γGlu][γGlu][AEEA][AEEA]RGRH[Trp(7-Me)]AV[βAla]HL[Nle]-NH2
SMILES: CCCC[C@H](NC(=O)[C@H](CC(C)C)NC(=O)[C@H](Cc1c[nH]cn1)NC(=O)CCNC(=O)[C@@H](NC(=O)[C@H](C)NC(=O)[C@H](Cc1c[nH]c2c(C)cccc12)NC(=O)[C@H](Cc1c[nH]cn1)NC(=O)[C@H](CCCNC(=N)N)NC(=O)CNC(=O)[C@H](CCCNC(=N)N)NC(=O)COCCOCCNC(=O)COCCOCCNC(=O)CC[C@H](NC(=O)CC[C@H](NC(=O)CCCCCCCCCCCCCCCCCCC(=O)O)C(=O)O)C(=O)O)C(C)C)C(N)=O
B5: Peptide 256 (peptide)
peptide: {C20 diacid}-[γGlu]E[AEEA][AEEA]SGRH[Trp(7-Me)]AV[βAla]HL[Nle]-NH2
SMILES: CCCC[C@H](NC(=O)[C@H](CC(C)C)NC(=O)[C@H](Cc1c[nH]cn1)NC(=O)CCNC(=O)[C@@H](NC(=O)[C@H](C)NC(=O)[C@H](Cc1c[nH]c2c(C)cccc12)NC(=O)[C@H](Cc1c[nH]cn1)NC(=O)[C@H](CCCNC(=N)N)NC(=O)CNC(=O)[C@H](CO)NC(=O)COCCOCCNC(=O)COCCOCCNC(=O)[C@H](CCC(=O)O)NC(=O)CC[C@H](NC(=O)CCCCCCCCCCCCCCCCCCC(=O)O)C(=O)O)C(C)C)C(N)=O
B6: Peptide 257 (peptide)
peptide: {C20 diacid}-[γGlu][γGlu][AEEA][AEEA]ESQH[Trp(7-Me)]AV[βAla]HL[Nle]-NH2
SMILES: CCCC[C@H](NC(=O)[C@H](CC(C)C)NC(=O)[C@H](Cc1c[nH]cn1)NC(=O)CCNC(=O)[C@@H](NC(=O)[C@H](C)NC(=O)[C@H](Cc1c[nH]c2c(C)cccc12)NC(=O)[C@H](Cc1c[nH]cn1)NC(=O)[C@H](CCC(N)=O)NC(=O)[C@H](CO)NC(=O)[C@H](CCC(=O)O)NC(=O)COCCOCCNC(=O)COCCOCCNC(=O)CC[C@H](NC(=O)CC[C@H](NC(=O)CCCCCCCCCCCCCCCCCCC(=O)O)C(=O)O)C(=O)O)C(C)C)C(N)=O
B7: Peptide 253 (peptide)
peptide: {C20 diacid}-[γGlu][γGlu][AEEA][AEEA]RRH[Trp(7-Me)]AV[βAla]HL[Nle]-NH2
SMILES: CCCC[C@H](NC(=O)[C@H](CC(C)C)NC(=O)[C@H](Cc1c[nH]cn1)NC(=O)CCNC(=O)[C@@H](NC(=O)[C@H](C)NC(=O)[C@H](Cc1c[nH]c2c(C)cccc12)NC(=O)[C@H](Cc1c[nH]cn1)NC(=O)[C@H](CCCNC(=N)N)NC(=O)[C@H](CCCNC(=N)N)NC(=O)COCCOCCNC(=O)COCCOCCNC(=O)CC[C@H](NC(=O)CC[C@H](NC(=O)CCCCCCCCCCCCCCCCCCC(=O)O)C(=O)O)C(=O)O)C(C)C)C(N)=O
B8: Peptide 15 (peptide)
peptide: Palmitoyl-[d(γGlu)][AEEA][AEEA]GNHWAV[dA]HL[Nle][Sar]-NH2
SMILES: CCCCCCCCCCCCCCCC(=O)N[C@H](CCC(=O)NCCOCCOCC(=O)NCCOCCOCC(=O)NCC(=O)N[C@@H](CC(N)=O)C(=O)N[C@@H](Cc1c[nH]cn1)C(=O)N[C@@H](Cc1c[nH]c2ccccc12)C(=O)N[C@@H](C)C(=O)N[C@H](C(=O)N[C@H](C)C(=O)N[C@@H](Cc1c[nH]cn1)C(=O)N[C@@H](CC(C)C)C(=O)N[C@@H](CCCC)C(=O)N(C)CC(N)=O)C(C)C)C(=O)O
B9: Peptide 244 (peptide)
peptide: {C20 diacid}-[γGlu][γGlu][AEEA][AEEA]GRHWAV[dA]HL[Nle]-NH2
SMILES: CCCC[C@H](NC(=O)[C@H](CC(C)C)NC(=O)[C@H](Cc1c[nH]cn1)NC(=O)[C@@H](C)NC(=O)[C@@H](NC(=O)[C@H](C)NC(=O)[C@H](Cc1c[nH]c2ccccc12)NC(=O)[C@H](Cc1c[nH]cn1)NC(=O)[C@H](CCCNC(=N)N)NC(=O)CNC(=O)COCCOCCNC(=O)COCCOCCNC(=O)CC[C@H](NC(=O)CC[C@H](NC(=O)CCCCCCCCCCCCCCCCCCC(=O)O)C(=O)O)C(=O)O)C(C)C)C(N)=O
B10: Peptide 245 (peptide)
peptide: {C20 diacid}-[γGlu][γGlu][AEEA][AEEA][dF]N[3Pal]WAV[βAla]HL[Nle]-NH2
SMILES: CCCC[C@H](NC(=O)[C@H](CC(C)C)NC(=O)[C@H](Cc1c[nH]cn1)NC(=O)CCNC(=O)[C@@H](NC(=O)[C@H](C)NC(=O)[C@H](Cc1c[nH]c2ccccc12)NC(=O)[C@H](Cc1cccnc1)NC(=O)[C@H](CC(N)=O)NC(=O)[C@@H](Cc1ccccc1)NC(=O)COCCOCCNC(=O)COCCOCCNC(=O)CC[C@H](NC(=O)CC[C@H](NC(=O)CCCCCCCCCCCCCCCCCCC(=O)O)C(=O)O)C(=O)O)C(C)C)C(N)=O
B11: Peptide 248 (peptide)
peptide: {C20 diacid}-[γGlu][γGlu][AEEA][AEEA]E[dS]EH[Trp(7-Me)]AV[βAla]HL[Nle]-NH2
SMILES: CCCC[C@H](NC(=O)[C@H](CC(C)C)NC(=O)[C@H](Cc1c[nH]cn1)NC(=O)CCNC(=O)[C@@H](NC(=O)[C@H](C)NC(=O)[C@H](Cc1c[nH]c2c(C)cccc12)NC(=O)[C@H](Cc1c[nH]cn1)NC(=O)[C@H](CCC(=O)O)NC(=O)[C@@H](CO)NC(=O)[C@H](CCC(=O)O)NC(=O)COCCOCCNC(=O)COCCOCCNC(=O)CC[C@H](NC(=O)CC[C@H](NC(=O)CCCCCCCCCCCCCCCCCCC(=O)O)C(=O)O)C(=O)O)C(C)C)C(N)=O
B12: Peptide 255 (peptide)
peptide: {C20 diacid}-[γGlu]E[AEEA][AEEA]SGEH[Trp(7-Me)]AV[βAla]HL[Nle]-NH2
SMILES: CCCC[C@H](NC(=O)[C@H](CC(C)C)NC(=O)[C@H](Cc1c[nH]cn1)NC(=O)CCNC(=O)[C@@H](NC(=O)[C@H](C)NC(=O)[C@H](Cc1c[nH]c2c(C)cccc12)NC(=O)[C@H](Cc1c[nH]cn1)NC(=O)[C@H](CCC(=O)O)NC(=O)CNC(=O)[C@H](CO)NC(=O)COCCOCCNC(=O)COCCOCCNC(=O)[C@H](CCC(=O)O)NC(=O)CC[C@H](NC(=O)CCCCCCCCCCCCCCCCCCC(=O)O)C(=O)O)C(C)C)C(N)=O

Starred links: 1 amine or outer side, 2 acyl side, 3 side chain; linkers in the order of their positions; H or OH if unused. Non-standard residues stand in square brackets, D forms with d. *: point of attachment. Trp(7-Me) = Cc1cccc2c(C[C@H](N)C(=O)O)c[nH]c12; C20 diacid = O=C(O)CCCCCCCCCCCCCCCCCCC(=O)*; d(γGlu) = O=C(O)[C@@H](CCC(=O)[*:2])N[*:1]; C18 diacid = O=C(O)CCCCCCCCCCCCCCCCC(=O)*; γGlu = O=C(O)[C@H](CCC(=O)[*:2])N[*:1]; Palmitoyl = CCCCCCCCCCCCCCCC(=O)*; 2CE‑PEG‑TMEA = not defined here; 3Pal = N[C@@H](Cc1cccnc1)C(=O)O; 5CTMPA = not defined here; Nle = CCCC[C@H](N)C(=O)O; Dap = NC[C@H](N)C(=O)O; AEEA = NCCOCCOCC(=O)O; βAla = NCCC(=O)O; Sar = CNCC(=O)O

The assay deals with human GRP receptor (human, UniProt P30550 1-384). Briefly: cell-based or functional assay.
Chain of human GRP receptor (P30550 whole entry): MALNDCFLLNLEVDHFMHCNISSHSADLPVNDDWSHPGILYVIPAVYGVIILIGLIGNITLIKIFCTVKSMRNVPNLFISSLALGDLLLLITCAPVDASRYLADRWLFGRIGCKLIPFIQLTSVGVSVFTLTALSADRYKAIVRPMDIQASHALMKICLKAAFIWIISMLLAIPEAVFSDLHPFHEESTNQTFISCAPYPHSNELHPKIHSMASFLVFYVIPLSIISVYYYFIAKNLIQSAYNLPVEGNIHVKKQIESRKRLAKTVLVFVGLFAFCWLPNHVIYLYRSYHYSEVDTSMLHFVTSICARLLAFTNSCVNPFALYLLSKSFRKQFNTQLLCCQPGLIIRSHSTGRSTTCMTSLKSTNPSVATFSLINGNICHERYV
B1: the “hIP1 GRPR EC50” value was 7.5 nM.

{C20 diacid}-[γGlu][AEEA][AEEA]GQHWAV[βAla]HL[Hse(Me)]-NH2 [Peptide 265]: the “hIP1 GRPR EC50” value worked out at 7.7 nM.

{C20 diacid}-[γGlu][AEEA][AEEA]G[Dap](5CTMPA)HWAV[βAla]HL[Nle]-NH2 (reading uncertain) [Peptide 261]: the “hIP1 GRPR EC50” value came out at 4 nM.

In the case of B2, the “hIP1 GRPR EC50” value worked out at 4.4 nM.

For {C20 diacid}-[γGlu][γGlu][AEEA][AEEA]GNH[Trp(7-Me)]AV[BABA]HL[Nle]-NH2 [Peptide 258], the “hIP1 GRPR EC50” value is 6 nM.

As for {C20 diacid}-[γGlu][γGlu][AEEA][AEEA]GQH[Trp(7-Me)]AV[BABA]HL[Nle]-NH2 [Peptide 259], the “hIP1 GRPR EC50” value is 8.2 nM.

Take B3: the “hIP1 GRPR EC50” value turned out to be 3.6 nM.

With B4, the “hIP1 GRPR EC50” value is 3.7 nM.

Take {C20 diacid}-[γGlu][γGlu][AEEA][AEEA]GEH[Trp(7-Me)]AV[BABA]HL[Nle]-NH2 [Peptide 247]: the “hIP1 GRPR EC50” value stood at 1.8 nM.

As for B5, the “hIP1 GRPR EC50” value amounted to 3.7 nM.

Turning to B6, the “hIP1 GRPR EC50” value was found to be 12.5 nM.

For the molecule B7, the “hIP1 GRPR EC50” value is 3.7 nM.

On to B8, for which the “hIP1 GRPR EC50” value was 1.4 nM.

With B9, the “hIP1 GRPR EC50” value came to 2.8 nM.

{C20 diacid}-[γGlu][AEEA][AEEA]GNH[Trp(7-Me)]AV[3A3MBA]HL[Nle]-NH2 [Peptide 264]: the “hIP1 GRPR EC50” value amounted to 8.6 nM.

Take B10: the “hIP1 GRPR EC50” value is 11.9 nM.

On to {C20 diacid}-[γGlu][AEEA][AEEA]GQH[Trp(7-Me)]AV[BAIBA]HL[Nle]-NH2 [Peptide 263], for which the “hIP1 GRPR EC50” value amounted to 2.7 nM.

Turning to B11, the “hIP1 GRPR EC50” value was 10.5 nM.

Consider B12, for which the “hIP1 GRPR EC50” value was 6.9 nM.

As for {C20 diacid}-[γGlu][AEEA][AEEA]G[Dap](2CE‑PEG‑TMEA)HWAV[βAla]HL[Nle]-NH2 (reading uncertain) [Peptide 262], the “hIP1 GRPR EC50” value came to 4 nM.
